Measurements published in article PMC10397247.

Tests used:
[1] = molecular target: T1, O1-bS; assay: two-hybrid library CCNG1;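 also: natural log of median RNA to DNA barcode read ratio; higher means stronger binding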
T1 chain: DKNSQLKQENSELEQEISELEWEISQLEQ

[2] = molecular target: T2, O10-bS; assay: two-hybrid library CCNG1;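 also: natural log of median RNA to DNA barcode read ratio; higher means stronger binding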
T2 chain: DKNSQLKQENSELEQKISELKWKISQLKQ

[3] = molecular target: T3, O11-bS; assay: two-hybrid library CCNG1;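 also: natural log of median RNA to DNA barcode read ratio; higher means stronger binding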
T3 chain: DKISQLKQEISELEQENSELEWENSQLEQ

[4] = molecular target: T4, O12-bS; assay: two-hybrid library CCNG1;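 also: natural log of median RNA to DNA barcode read ratio; higher means stronger binding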
T4 chain: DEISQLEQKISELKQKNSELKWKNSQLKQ

[5] = molecular target: T5, O13-bS; assay: two-hybrid library CCNG1;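 also: natural log of median RNA to DNA barcode read ratio; higher means stronger binding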
T5 chain: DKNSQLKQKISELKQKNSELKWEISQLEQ

[6] = molecular target: T6, O14-bS; assay: two-hybrid library CCNG1;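 also: natural log of median RNA to DNA barcode read ratio; higher means stronger binding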
T6 chain: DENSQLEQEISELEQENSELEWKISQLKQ

[7] = molecular target: T7, O15-bS; assay: two-hybrid library CCNG1
T7 chain: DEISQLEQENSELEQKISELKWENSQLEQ

[8] = molecular target: T8, O16-bS; assay: two-hybrid library CCNG1
T8 chain: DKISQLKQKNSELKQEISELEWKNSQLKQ

[9] = molecular target: T9, O2-bS; assay: two-hybrid library CCNG1
T9 chain: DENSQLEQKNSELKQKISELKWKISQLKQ

[10] = molecular target: T10, O3-bS; assay: two-hybrid library CCNG1
T10 chain: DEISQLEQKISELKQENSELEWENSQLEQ

[11] = molecular target: T11, O4-bS; assay: two-hybrid library CCNG1
T11 chain: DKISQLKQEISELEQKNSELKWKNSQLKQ

[12] = molecular target: T12, O5-bS; assay: two-hybrid library CCNG1
T12 chain: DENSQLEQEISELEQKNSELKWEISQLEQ

[13] = molecular target: T13, O6-bS; assay: two-hybrid library CCNG1
T13 chain: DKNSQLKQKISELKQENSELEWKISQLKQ

[14] = molecular target: T14, O7-bS; assay: two-hybrid library CCNG1
T14 chain: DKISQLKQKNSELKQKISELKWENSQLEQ

[15] = molecular target: T15, O8-bS; assay: two-hybrid library CCNG1
T15 chain: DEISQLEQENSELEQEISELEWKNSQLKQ

[16] = molecular target: T16, O9-bS; assay: two-hybrid library CCNG1
T16 chain: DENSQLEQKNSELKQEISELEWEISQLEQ

[17] = molecular target: T17, Core_IIII-es_KEEE; assay: two-hybrid library CCmax; details: mean of both orientations
T17 chain: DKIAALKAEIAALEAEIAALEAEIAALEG

[18] = molecular target: T18, Core_IINN-es_KEKE; assay: two-hybrid library CCmax; details: mean of both orientations
T18 chain: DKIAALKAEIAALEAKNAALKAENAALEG

[19] = molecular target: T19, Core_IIIN-es_KEKE; assay: two-hybrid library CCmax
T19 chain: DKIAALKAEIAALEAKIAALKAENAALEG

[20] = molecular target: T20, Core_IIIN-es_KEEE; assay: two-hybrid library CCmax; details: mean of both orientations
T20 chain: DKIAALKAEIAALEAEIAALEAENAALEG

[21] = molecular target: T21, Core_NINI-es_KEKE; assay: two-hybrid library CCmax; details: mean of both orientations
T21 chain: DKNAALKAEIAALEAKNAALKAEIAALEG

[22] = molecular target: T22, Core_NINI-es_KEEE; assay: two-hybrid library CCmax; details: mean of both orientations
T22 chain: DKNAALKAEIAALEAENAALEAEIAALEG

[23] = molecular target: T23, Core_INNI-es_KKKE; assay: two-hybrid library CCmax; details: mean of both orientations
T23 chain: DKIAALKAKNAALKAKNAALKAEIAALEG

Question: For DKNSQLKQENSELEQEISELEWEISQLEQ [O1-bS], which interaction score [1] is on record?
Answer: Its interaction score is -1.37.

Question: And the interaction score [2]?
Answer: Its interaction score is -1.15.

Question: And the interaction score [3]?
Answer: The interaction score was -0.763.

Question: What about the interaction score [4] of the same binder?
Answer: Its interaction score is -0.754.

Question: And the interaction score [5]?
Answer: Its interaction score is -1.7.

Question: And the interaction score [6]?
Answer: The interaction score was -0.387.

Question: And the interaction score [7]?
Answer: The interaction score was -0.914.

Question: What about the interaction score [8] of the same binder?
Answer: The interaction score was -1.87.

Question: What about the interaction score [9] of the same binder?
Answer: Its interaction score is 2.08.

Question: What about the interaction score [10] of the same binder?
Answer: The interaction score was -0.395.

Question: And the interaction score [11]?
Answer: The interaction score was -1.85.

Question: What about the interaction score [12] of the same binder?
Answer: The interaction score was -2.

Question: What about the interaction score [13] of the same binder?
Answer: The interaction score was -0.716.

Question: And the interaction score [14]?
Answer: The interaction score was -1.5.

Question: What about the interaction score [15] of the same binder?
Answer: Its interaction score is -0.794.

Question: And the interaction score [16]?
Answer: The interaction score was -1.23.

Question: Which interaction score [17] does the source give for DEIAALEAKIAALKAKIAALKAKIAALKG [Core_IIII-es_EKKK] here?
Answer: Its interaction score is 1.95.

Question: DEIAALEAKIAALKAENAALEAKNAALKG [Core_IINN-es_EKEK] was tested. Which interaction score [18] did it give?
Answer: The interaction score was 2.27.

Question: DEIAALEAKIAALKAEIAALEAKNAALKG [Core_IIIN-es_EKEK] was tested. Which interaction score [19] did it give?
Answer: The interaction score was 2.11.

Question: How did the interaction score [20] turn out when DEIAALEAKIAALKAKIAALKAKNAALKG [Core_IIIN-es_EKKK] was run?
Answer: The interaction score was 2.06.

Question: For DENAALEAKIAALKAENAALEAKIAALKG [Core_NINI-es_EKEK], which interaction score [21] is on record?
Answer: The interaction score was 1.98.

Question: With DENAALEAKIAALKAKNAALKAKIAALKG [Core_NINI-es_EKKK] as the binder, how does the interaction score [22] read?
Answer: The interaction score was 2.35.

Question: DEIAALEAENAALEAENAALEAKIAALKG [Core_INNI-es_EEEK] was tested. Which interaction score [23] did it give?
Answer: Its interaction score is 2.15.
